Test results taken from PMC12052392 (2025).
Changes are numbered by the printed parent chain. Several values for one entry are separate records, joined by “and”; a condition that tells them apart may be missing. Equal values may be shown once.

T1: SARS-CoV-2 S2 (T1076-Q1208) antigen, trimeric S2 fusion-core-based antigen (SARS-CoV-2, UniProt P0DTC2 1076-1208)
T1 chain: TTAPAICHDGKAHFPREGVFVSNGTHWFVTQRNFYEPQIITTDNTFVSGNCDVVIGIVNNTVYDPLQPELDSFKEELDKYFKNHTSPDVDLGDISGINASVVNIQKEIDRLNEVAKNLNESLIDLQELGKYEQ

T2: GST-fused truncated S2 protein S2 (D1139-E1151) (SARS-CoV-2, UniProt P0DTC2 1139-1151)
T2 chain: DPLQPELDSFKEE

B1: nanobody H145 (VHH)
VHH: QVQLVESGGGLVQTGGSLRLSCEASGSAFSSYAVNWYRQAPGKQREPVAAIGSFNTVYSDSVKGRFTISRDNAKNTVYLQMNSLKPEDTAVYICNARRGATNTWGQGTQVTVSS
modifications: biotin (Biotinylation Kit), only in the BLI with truncated S2 proteins
B2: nanobody H17 (VHH)
VHH: B1 VHH with Q1E, L4V, E23A, I93V, T103Y, S114P
modifications: biotin (Biotinylation Kit), only in the BLI with truncated S2 proteins

What was measured:
[1] = target: T1, SARS-CoV-2 S2 (T1076-Q1208) antigen, …; experiment: BLI
S2 (G1124-H1159) = experiment: ELISA
S2 (D1139-D1153) = experiment: ELISA
[2] = target: T2, GST-fused truncated S2 protein S2 …; experiment: ELISA

Binder | koff [1] | EC50 (S2 (G1124-H1159)) | EC50 (S2 (D1139-D1153)) | EC50 [2]
B1 | 0.000149 s⁻¹ and 0.000129 s⁻¹ and 0.000123 s⁻¹ | 0.53 nM | 1.01 nM | > 170 nM
B2 | 0.000525 s⁻¹ and 0.00023 s⁻¹ | 4.71 nM | 4.83 nM | –
